According to patent publication US9926377B2, “Anti-GPC3 antibodies and immunoconjugates” (GENENTECH, INC., priority 2014, dated 2018):

Assays:
biotinylated GPC3 = biotinylated GPC3 (Homo sapiens, UniProt P51654); assay: Epitope binning competition assay (Octet RED384); type: binding; settings: 7H1 or 4G7 as first saturating antibody 10 μg/ml; competing antibodies 5 μg/ml
Protocol: Epitope binning of anti-GPC3 antibodies was performed using a competition assay. Using the Octet RED384 instrument (ForteBio), biotinylated GPC3 was captured onto Streptavidin biosensors at 10 μg/ml for 600 seconds. Binding of the first antibody to saturation was achieved by adding 10 μg/ml for 600 seconds. The same biosensors were dipped into the competing antibodies at 5 μg/ml and binding was measured for 600 seconds. […] Antibody 7H1 was used as the first saturating antibody. A subsequent experiment was performed using antibody 4G7 as the first saturating antibody.

human GPC3 = target: T1, human GPC3 (Homo sapiens, UniProt P51654); assay: FACS binding to human GPC3 fragments expressed on 293S cells; settings: C-terminal fragment, amino acids 359-560 of human GPC3, on 293S cells
T1 construct: C-terminal glycophosphatidylinositol anchor (GPI link) (C); expressed in transfected cells; host or cells: 293S cells, transient
T1 sequence (P51654 359-560): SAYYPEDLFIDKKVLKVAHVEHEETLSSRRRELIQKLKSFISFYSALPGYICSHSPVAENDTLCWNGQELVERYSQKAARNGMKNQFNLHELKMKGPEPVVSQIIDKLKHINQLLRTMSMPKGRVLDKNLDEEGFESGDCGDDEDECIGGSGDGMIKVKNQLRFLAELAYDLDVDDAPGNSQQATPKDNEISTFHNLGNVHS
From the text: (§1) C-terminal truncation constructs of human GPC3 were made to further refine the epitopes for antibodies 7H1 and 4G7. […] The three C-terminal truncations each comprised the GPC N-terminal signal sequence (SS) and C-terminal glycophosphatidylinositol anchor (GPI link). […] See FIG. 7 (Santa Cruz Biotechnology antibody 1G12, which was raised to amino acids 511-580 of human GPC3, was used as a positive control for C-terminal fragment binding). Antibody 7H1 was reformatted as a chimeric antibody with human A118C cysteine-engineered IgG1 and Igκ constant regions (SEQ ID NOs: 42 and 43).

GPC3 [1] = target: T2, GPC3 (Homo sapiens, UniProt P51654); assay: Binding to GPC3-expressing cells by FACS; set-up: endogenous in cells
From the text: (§2) Positive clones were expanded and re-screened for binding to huGPC3, cynoGPC3, and HepG2 cells by ELISA, FACS, and immunohistochemistry (IHC). Thirteen antibodies were selected and purified, including antibodies 7H1 and 4G7. The heavy and light chain variable region sequences of antibody 7H1 are shown in SEQ ID NOs: 2 and 3, respectively. The heavy and light chain variable region sequences of antibody 4G7 are shown in SEQ ID NOs: 26 and 27, respectively.
(§3) Antibody 7H1 also detects human, cynomolgus monkey, rat, and mouse GPC3 by Western blot.
Target sequence in this assay (P51654 25-554): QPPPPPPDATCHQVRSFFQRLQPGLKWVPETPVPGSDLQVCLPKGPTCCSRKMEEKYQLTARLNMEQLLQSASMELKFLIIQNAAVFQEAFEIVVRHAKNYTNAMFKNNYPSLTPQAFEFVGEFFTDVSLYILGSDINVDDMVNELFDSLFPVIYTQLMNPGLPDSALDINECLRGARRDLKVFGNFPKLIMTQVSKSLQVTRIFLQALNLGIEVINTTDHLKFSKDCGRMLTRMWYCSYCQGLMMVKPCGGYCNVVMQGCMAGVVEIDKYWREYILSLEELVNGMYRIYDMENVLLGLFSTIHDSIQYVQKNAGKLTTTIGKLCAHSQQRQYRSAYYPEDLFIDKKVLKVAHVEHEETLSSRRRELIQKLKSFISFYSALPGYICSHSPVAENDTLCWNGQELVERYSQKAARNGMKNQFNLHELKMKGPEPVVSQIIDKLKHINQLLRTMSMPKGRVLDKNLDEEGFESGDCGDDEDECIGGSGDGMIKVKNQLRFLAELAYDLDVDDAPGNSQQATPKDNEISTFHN

GPC3 [2] = target: T2, GPC3; assay: FACS binding to human GPC3 fragments expressed on 293S cells; set-up: C-terminal glycophosphatidylinositol anchor (GPI link) (C); expressed in transfected cells; host or cells: 293S cells, transient
From the text: as §1

GPC3 [3] = target: T2, GPC3; assay: Western blot detection of human GPC3; type: binding
From the text: as §3
Target sequence in this assay (P51654 25-554): as above

cynomolgus monkey GPC3 = assay: Western blot detection of cynomolgus monkey GPC3; type: binding
From the text: as §3

rat GPC3 = rat GPC3 (Rattus norvegicus, UniProt P13265); assay: Western blot detection of rat GPC3; type: binding
From the text: as §3

mouse GPC3 = mouse GPC3 (Mus musculus, UniProt Q8CFZ4); assay: Western blot detection of mouse GPC3; type: binding
From the text: as §3

GPC3 [4] = target: T2, GPC3; assay: Reactivity by immunohistochemistry (IHC); type: binding; set-up: endogenous in cells
From the text: as §2, §3
Target sequence in this assay (P51654 25-554): as above

GPC3 [5] = target: T2, GPC3; assay: Western blot binding to C-terminal truncation constructs of human GPC3; set-up: C-terminal glycophosphatidylinositol anchor (GPI link) (C); expressed in transfected cells; host or cells: 293S cells, transient
From the text: as §1

[6] = N-terminal fragment, amino acids 25 to 358 of human GPC3, on 293S cells

biotinylated GPC3, sequence (P51654 25-554): as above
mouse GPC3, sequence (Q8CFZ4 25-553): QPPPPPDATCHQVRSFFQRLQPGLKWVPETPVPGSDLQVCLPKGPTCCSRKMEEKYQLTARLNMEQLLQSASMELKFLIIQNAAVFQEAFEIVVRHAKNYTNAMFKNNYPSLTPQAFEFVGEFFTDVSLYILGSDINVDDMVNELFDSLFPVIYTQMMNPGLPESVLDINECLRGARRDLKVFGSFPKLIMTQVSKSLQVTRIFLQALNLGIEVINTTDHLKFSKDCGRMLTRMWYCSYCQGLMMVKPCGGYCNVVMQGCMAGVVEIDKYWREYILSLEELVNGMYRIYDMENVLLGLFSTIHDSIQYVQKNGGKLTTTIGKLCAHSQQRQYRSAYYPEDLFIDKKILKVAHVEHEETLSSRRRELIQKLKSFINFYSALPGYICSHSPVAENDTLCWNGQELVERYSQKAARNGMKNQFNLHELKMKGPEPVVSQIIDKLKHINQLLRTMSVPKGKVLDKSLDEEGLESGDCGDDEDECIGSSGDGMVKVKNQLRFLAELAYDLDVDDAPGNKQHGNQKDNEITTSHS
rat GPC3, sequence (P13265 with tags, fused parts or gaps limits assumed): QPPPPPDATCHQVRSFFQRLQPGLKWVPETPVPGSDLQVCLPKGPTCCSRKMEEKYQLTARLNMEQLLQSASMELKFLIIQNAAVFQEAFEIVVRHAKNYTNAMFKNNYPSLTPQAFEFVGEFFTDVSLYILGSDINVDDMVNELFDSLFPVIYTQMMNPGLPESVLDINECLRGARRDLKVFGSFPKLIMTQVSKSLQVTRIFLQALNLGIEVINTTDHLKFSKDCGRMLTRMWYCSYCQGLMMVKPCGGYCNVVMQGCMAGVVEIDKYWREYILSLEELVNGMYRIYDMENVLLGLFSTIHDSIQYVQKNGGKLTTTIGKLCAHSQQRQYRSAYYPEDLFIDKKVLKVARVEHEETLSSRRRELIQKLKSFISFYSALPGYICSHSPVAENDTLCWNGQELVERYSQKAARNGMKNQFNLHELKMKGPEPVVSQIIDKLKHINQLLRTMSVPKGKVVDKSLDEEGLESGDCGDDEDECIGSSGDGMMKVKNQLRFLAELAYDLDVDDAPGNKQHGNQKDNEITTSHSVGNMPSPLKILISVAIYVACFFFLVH
cynomolgus monkey GPC3, sequence (as listed by the source): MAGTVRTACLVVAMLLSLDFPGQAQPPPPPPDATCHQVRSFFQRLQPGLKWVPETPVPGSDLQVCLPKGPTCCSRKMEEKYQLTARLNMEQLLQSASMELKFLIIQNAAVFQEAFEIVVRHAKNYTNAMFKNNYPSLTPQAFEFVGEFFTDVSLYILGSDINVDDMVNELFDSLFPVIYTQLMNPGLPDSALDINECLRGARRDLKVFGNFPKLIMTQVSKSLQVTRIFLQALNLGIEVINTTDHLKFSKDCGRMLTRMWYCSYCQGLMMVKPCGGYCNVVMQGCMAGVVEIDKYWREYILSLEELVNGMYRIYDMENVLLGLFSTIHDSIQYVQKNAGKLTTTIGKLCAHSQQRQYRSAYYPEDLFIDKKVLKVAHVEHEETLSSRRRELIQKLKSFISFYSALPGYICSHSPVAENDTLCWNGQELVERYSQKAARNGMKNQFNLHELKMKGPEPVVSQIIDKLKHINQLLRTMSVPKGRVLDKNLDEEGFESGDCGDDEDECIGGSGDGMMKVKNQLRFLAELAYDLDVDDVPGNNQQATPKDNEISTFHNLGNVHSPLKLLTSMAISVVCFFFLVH

B1: 4G7: anti-GPC3 monoclonal antibody; heavy and light chain variable regions SEQ ID NOs: 26 and 27 (antibody, V domains shown)
VH: EVQLQQSGTVLARPGASVKMSCKASGYTFTSYWVHWVKQRPGQGLEWIGAIYPGNIDASYNQKFKGKAKLTAVTSTSTAYMELSSLTNEDSAVYYCSYDYDAWFVYWGQGTLVTVSA
VL: DIQMTQSHKFMSTSVGDRVSITCKASQDVSTAVAWYQQKPGQSPTLLIYSASYRYTGVPDRFTGSGSGTDFTFTISSVQAEDLAVYYCQQHYFTPRTFGGGTKLELK
Biotinylated GPC3
  Epitope bin: different epitope bins
Human GPC3
  Binding by FACS: did not show significant binding
GPC3 [1]; 293S cells expressing GPC3
  Reactivity by FACS: react strongly
GPC3 [1]; HepG2 X1 cells
  Reactivity by FACS: react strongly
GPC3 [2]; [6]
  Binding by FACS: did not show significant binding

B2: 7H1: anti-GPC3 monoclonal antibody; heavy and light chain variable regions SEQ ID NOs: 2 and 3 (antibody, V domains shown)
VH: QVQLQQSGPELVKPGASVKISCKASGYTFTDYYINWVKQKPGQGLEWIGWIYPGSGHTECNETFKGKATLTVDTSSSTAYMQLSSLTSEDTAVYFCTRGYYAPMGYFDYWGQGTTLTVSS
VL: DIQMTQSPSSLSASLGERVSLTCRASQEISGYLSWLQQKPDGTIKRLIYAASTLDSGVPKRFSGSRSGSDYSLTISGLESEDFADYYCLQYASYPYTFGGGTKLEIK
GPC3 [3]
  Detection by Western blot: detects
Cynomolgus monkey GPC3
  Detection by Western blot: detects
Rat GPC3
  Detection by Western blot: detects
Mouse GPC3
  Detection by Western blot: detects
Biotinylated GPC3
  Epitope bin: different epitope bins
GPC3 [4]; HepG2 cells
  Reactivity by IHC: react strongly
GPC3 [4]; JHH cells
  Reactivity by IHC: react strongly
GPC3 [4]; cells stably transfected with GPC3
  Reactivity by IHC: react strongly
GPC3 [4]; hepatic cancer tissue microarray
  Reactivity by IHC: react strongly
GPC3 [1]; 293S cells expressing GPC3
  Reactivity by FACS: react strongly
GPC3 [1]; HepG2 X1 cells
  Reactivity by FACS: react strongly
GPC3 [2]; [6]
  Binding by FACS: bind
GPC3 [2]; amino acids 25 to 137 of human GPC3, transiently expressed on 293S cells
  Binding by FACS: bind
GPC3 [2]; amino acids 25 to 247 of human GPC3, transiently expressed on 293S cells
  Binding by FACS: bind
GPC3 [5]; amino acids 25 to 137 of human GPC3
  Binding by Western blot: bind
GPC3 [5]; amino acids 25 to 247 of human GPC3
  Binding by Western blot: bind
GPC3 [5]; amino acids 25 to 358 of human GPC3
  Binding by Western blot: bind
